{"source": "patent US7183092B2", "about": "“Modified luciferase” (priority 2003, dated 2007)", "molecules": {"B1": {"name": "CNBLuc03-06: modified Photinus pyralis luciferase: serine to threonine at 239, aspartic acid to tyrosine at 357, alanine to threonine at 532 (protein, listed as Photinus pyralis)", "chain": "MEDAKNIKKGPAPFYPLEDGTAGEQLHKAMKRYALVPGTIAFTDAHIEVNITYAEYFEMSVRLAEAMKRYGLNTNHRIVVCSENSLQFFMPVLGALFIGVAVAPANDIYNERELLNSMNISQPTVVFVSKKGLQKILNVQKKLPIIQKIIIMDSKTDYQGFQSMYTFVTSHLPPGFNEYDFVPESFDRDKTIALIMNSSGSTGLPKGVALPHRTACVRFSHARDPIFGNQIIPDTAILTVVPFHHGFGMFTTLGYLICGFAVVLMYRFEEELFLRSLQDYKIQSALLVPTLFSFFAKSTLIDKYDLSNLHEIASGGAPLSKEVGEAVAKRFHLPGIRQGYGLTETTSAILITPEGDYKPGAVGKVVPFFEAKVVDLDTGKTLGVNQRGELCVRGPMIMSGYVNNPEATNALIDKDGWLHSGDIAYWDEDEHFFIVDRLKSLIKYKGYQVAPAELESILLQHPNIFDAGVAGLPDDDAGELPAAVVVLEHGKTMTEKEIVDYVASQVTTAKKFRGGVVFVDEVPKGLTGKLDTRKIREILIKAKKGGKSKL"}}, "key": {"[1]": {"experiment": "Quantitative in vitro screening of mutant luciferases with chloroform", "type": "biochemical, Photinus pyralis", "details": "screening; 68.8 mM chloroform (0.8% vol.), 10% ethanol, 33 mM DTT, cell lysate supernatant", "method": "Selected colonies from secondary screening were inoculated and grown in 5 ml LB broth containing 100 μg/ml ampicillin at 30° C. overnight. When the OD660 reached approximately 1, bacterial cells were harvested from 1.5 ml of culture by centrifugation for 3 min at 12,000 rpm (Eppendorf centrifuge model 5415D). Harvested cells were resuspended in 1 ml of 40 mM Tris-Acetate buffer, pH 7.8, and sonicated for 10 seconds using a Branson Sonifer 450, Duty cycle-40 and output control-4. The activity of each luciferase sample, prepared using 10 μl of supernatant from a subsequent centrifugation of sonicated bacterial cell culture, was tested in 200 μl total reaction volume by a Luminometer (Perkin Elmer, model Victor II). Each assay contained 40 mM Tris-Acetate, 1 mM MgSO4, 0.1 mM EDTA (ethylenediaminetetraacetic acid), 33 mM DTT (dithiothreitol), 500 μM D-Luciferin, 10% Ethanol and 500 μM ATP at pH 7.8. Some screening assays also contained 68.8 mM chloroform (0.8% vol.).\nDifferent mutant luciferases were compared quantitatively by determining the percentage (%) inhibition of luciferase activity in the presence of chloroform relative to a control without chloroform. The specific activities of chloroform-tolerant mutants were generally lower as compared to wild type. […] The nucleotide sequence of CNBLuc03-02 is SEQ ID No: 1. The polypeptide sequence of the product of SEQ ID No: 1 is SEQ ID No: 2."}, "[2]": {"experiment": "Thermostability (storage stability) of luciferase", "type": "physicochemical, Photinus pyralis", "details": "FIG. 6-8; 10 μg/ml enzyme kept at 0° C., 25° C. and 37° C.", "method": "Both purified wild type luciferase and CNBLuc03-06 luciferase (SEQ ID NO: 4) were diluted to 10 μg/ml and aliquoted in three micro-centrifuge tubes for these storage stability studies conducted at different temperatures. The tubes containing wild type luciferase and CNBluc03-06 luciferase (SEQ ID NO: 4) were incubated at three different temperatures, 0° C. (FIG. 6), 25° C. (FIG. 7), and 37° C. (FIG. 8) over time. The assay contained 40 mM Tris-Acetate at pH 7.8, 1 mM MgSO4, 0.1 mM EDTA, 500 μM D-Luciferin, 1 mM ATP, 0% ethanol and 33 mM DTT. The light output was measured every 30 minutes after two initial measurements at time 0 and 10 minutes. For each measurement all the samples were diluted to 2 μg/ml so that 10 μl of each sample could be added to give 20 ng of purified enzyme in each reaction."}, "[3]": {"experiment": "Specific activity of luciferase in the absence of DTT", "type": "biochemical, Photinus pyralis", "details": "0 mM DTT, pH 7.8, 1 mM ATP, 500 μM D-Luciferin, three replicates", "method": "Dithiothreitol (DTT) is an enzyme stabilizing agent used to reduce disulfide bonds (break the bonds) that are not normally formed under physiological conditions. Both purified wild type luciferase and CNBLuc03-06 luciferase (SEQ ID NO: 4) were diluted to 2 μg/ml in 40 mM Tris Acetate buffer at pH 7.8. The assay contained 40 mM Tris-Acetate at pH 7.8, 1 mM MgSO4, 0.1 mM EDTA, 500 μM D-Luciferin, 1 mM ATP, and 0 mM DTT. The light output was measured over time and three replicate measurements were made for each luciferase. The average value of the highest light output reading obtained over time was used to determine specific activity of each enzyme."}, "[4]": {"experiment": "Luciferase activity in the presence of anionic detergent SDS", "type": "biochemical, Photinus pyralis", "details": "FIG. 5; 20 ng purified luciferase, 0% ethanol, 33 mM DTT", "method": "(§1) The stability of CNBLuc03-06 luciferase (SEQ ID NO: 4), both in purified form and in cell lysates, in the presence of a range of potential inhibitors was assayed. The basic assay contained 40 mM Tris-Acetate at pH 7.8, 1 mM MgSO4, 0.1 mM EDTA (ethylenediaminetetraacetic acid), 500 μM D-Luciferin and 500 μM ATP. Ethanol, DTT (dithiothreitol) and potential inhibitors were included at the concentrations stated.\n(§2) The stability of CNBLuc03-06 luciferase (SEQ ID NO: 4) in the presence of Triton X-100 and SDS was determined using 20 ng of purified luciferase per sample using the basic assay conditions and in the presence of 0% ethanol and 33 mM DTT. The effect of detergents on wild type luciferase was determined previously by W. J. Simpson and J. R. M. Hammond (W. J. Simpson and J. R. M. Hammond, (1991) Journal of Bioluminescence & Chemiluminescence, 6. 97–106, incorporated herein by reference). They reported the anionic detergents inhibit luciferase activity, and cationic detergents and nonionic detergents increase the reaction rate when the concentration of detergent exceeds critical micelle concentration (CMC) value but only up to certain concentrations.\nSDS was used for testing the effect of anionic detergents."}, "[5]": {"experiment": "Stability of CNBLuc03-06 luciferase activity in the presence of HPV chemicals", "type": "biochemical, Photinus pyralis", "method": "as §1\nThis effect was confirmed by repeated experiments. With 20 ng purified CNBLuc03-06 luciferase (SEQ ID NO: 4) and in the presence of 2.5% ethanol, 1 mM DTT and 86 mM chloroform an activation of approximately 50% was measured, compared with the absence of chloroform.\nThe capacity of a variety HPV chemicals to inhibit or activate both wild type luciferase and CNBLuc03-06 luciferase (SEQ ID NO: 4) activity compared to controls without HPV chemicals was tested. Higher concentrations of chloroform (172 mM), methylene chloride (318 mM) or toluene (2.7 mM) were used. The basic assay contained 20ng of purified CNBLuc03-06, 1 mM DTT and 2.5% ethanol. CNBLuc03-06 luciferase (SEQ ID NO: 4) was exposed to each chemical for less than 5 minutes before measuring the light output."}, "[6]": {"experiment": "Luciferase activity in the presence of nonionic detergent Triton X-100", "type": "biochemical, Photinus pyralis", "details": "FIG. 4; Triton X-100 up to 5%, 20 ng purified luciferase, 0% ethanol, 33 mM DTT", "method": "as §1, §2"}, "[7]": {"experiment": "Luciferase activity at different pHs", "type": "biochemical, Photinus pyralis", "method": "20 ng of enzyme was used for each reaction. The pH was maintained at 7.8 by 40 mM Tris-acetate buffer and 33 mM DTT was added to each reaction. Both substrates, MGATP and D-Luciferin were saturated at 1 mM and 500 μM respectively. The values were normalized against the highest RLU (relative light units) at each pH optimum for comparison purpose. CNBLuc03-06 luciferase (SEQ ID NO: 4) has optimum pH of 9, but the high enough activity is retained at lower pHs in which enables us to use this mutant luciferase in case a wide range of pH is required for the assay (between 8–11)."}}, "note": "Entries after “also recorded” stand apart in the source; their conditions may differ."}
{"molecule": "B1", "values": [{"measurement": "inhibition of luciferase activity in the presence of chloroform relative to a control without chloroform", "setting": "[1]", "result": "not only resistant to, but also had the capacity to be activated by chloroform"}, {"measurement": "activity retained on incubation over time", "setting": "[2]", "result": "retained more activity than wild type luciferase"}, {"measurement": "specific activity (highest light output)", "setting": "[3]", "result": "9.6±0.4×10^9 RLU/mg enzyme/sec"}, {"measurement": "effect of SDS on luciferase activity", "setting": "[4]", "result": "inhibited luciferase activity significantly; also recorded: retained much more activity at all concentrations of SDS compared to wild type luciferase"}, {"measurement": "activation compared with the absence of chloroform", "setting": "[5]; 20 ng purified enzyme, 2.5% ethanol, 1 mM DTT, 86 mM chloroform", "result": "approximately 50%"}, {"measurement": "activation compared to controls, chloroform", "setting": "[5]; FIG. 3, chloroform 172 mM, 20 ng purified enzyme, 1 mM DTT, 2.5% ethanol", "result": "approximately 60%"}, {"measurement": "activation compared to controls, methylene chloride", "setting": "[5]; FIG. 3, methylene chloride 318 mM, 20 ng purified enzyme, 1 mM DTT, 2.5% ethanol", "result": "approximately 80%"}, {"measurement": "activation compared to controls, toluene", "setting": "[5]; FIG. 3, toluene 2.7 mM, 20 ng purified enzyme, 1 mM DTT, 2.5% ethanol", "result": "about 20%"}, {"measurement": "activation compared with the absence of chloroform", "setting": "[5]; cell lysates, 5% ethanol, 33 mM DTT, 0.8% chloroform", "result": "about 30%"}, {"measurement": "effect of Triton X-100 on luciferase activity", "setting": "[6]", "result": "activated by the nonionic detergent, Triton X-100, up to final concentration of 1.25%; also recorded: maintained activities above the control at all concentrations of Triton X-100"}, {"measurement": "optimum pH", "setting": "[7]; FIG. 9, 20 ng enzyme, 33 mM DTT, 1 mM MgATP, 500 μM D-Luciferin", "result": 9}, {"measurement": "activity at elevated pH", "setting": "[7]; up to pH 11", "result": "high activity at elevated pH (up to pH 11)"}]}
